Measured values from publication PMC6053526.

Tests used:
Test in all cases: EMSA
Conditions in all cases: 5x buffer (3 uL in 14 uL): 20% glycerol, 5 mM MgCl2, 2.5 mM EDTA, 2.5 mM DTT, 250 mM NaCl, 50 mM Tris-HCl pH 7.5, 0.25 mg/ml poly(dI-dC); 0.5 ug protein; 10 min
[1] = target: GST-AtWRKY50-C;TGA2-His (Arabidopsis thaliana;Arabidopsis thaliana) (UniProt Q8VWQ5+P43273)
[2] = target: T1, TGA2-His (Arabidopsis thaliana) (UniProt P43273)
T1 sequence: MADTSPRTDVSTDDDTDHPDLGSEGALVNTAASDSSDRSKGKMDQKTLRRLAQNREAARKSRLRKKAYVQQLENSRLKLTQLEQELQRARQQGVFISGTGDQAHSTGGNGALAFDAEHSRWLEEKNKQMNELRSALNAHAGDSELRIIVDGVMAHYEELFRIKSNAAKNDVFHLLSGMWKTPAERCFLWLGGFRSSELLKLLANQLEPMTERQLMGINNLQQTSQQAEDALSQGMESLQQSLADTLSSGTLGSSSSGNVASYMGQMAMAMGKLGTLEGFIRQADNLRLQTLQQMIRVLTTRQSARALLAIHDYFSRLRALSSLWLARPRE

[3] = target: GST-AtWRKY50-C (Arabidopsis thaliana) (UniProt Q8VWQ5)
Chain of GST-AtWRKY50-C (Arabidopsis thaliana) (Q8VWQ5 86-173): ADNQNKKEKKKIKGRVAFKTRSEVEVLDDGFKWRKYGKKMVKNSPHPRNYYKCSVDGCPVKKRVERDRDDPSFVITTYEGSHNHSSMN

Chain of GST-AtWRKY50-C;TGA2-His (Arabidopsis thaliana;Arabidopsis thaliana) (Q8VWQ5 86-173, one chain of several): as the sequence (Q8VWQ5 86-173) above

| Sequence | binding [1] | binding [2] | binding [3] |
| --- | --- | --- | --- |
| CTCTACGCAACTATTTTACTTACGTCATAGATGTGGCGGCATATATTCTTCAGGACTTTTCAGATCTAGGC (double strand) [BCDm1] | binds | binds |  |
| TTTCTCTACGTCACTATTTTACTTACGTCATAGATGTGGCGGCATATATTCTTCAGGACTTTTCAGATCTAGGC (double strand) [BCD] | binds | binds | binds |
| CATCTATTGCGTAAGTAAAATAGTGACGTAGAGAAACAGTCAATAGATCACCGGATCCGAT (double strand) [ABCm2] |  | binds more weakly |  |
| ATCGGATCCGGTGATCTATTGACTGTTTCTCTACGTCACTATTTTACTTACGTCATAGATGTGGCGGCATATA (double strand) [ABC] |  | binds | binds |
